Assay in all cases: fluorescence polarization; 100 mM KCl?; Fluorescence polarization: 1 nM FAM-DNA, 100 mM KCl or LiCl; DNA annealed in 50 mM HEPES pH 7.5; full buffer as in cited ref 17, temperature not stated. Footprinting: 50 mM HEPES pH 7.5, 100 mM KCl, 10 uM protein, 30 uM ssDNA, room temperature
Holding throughout (settings): protein: recombinant, label: 5'-FAM

One series has as its target T1, hRev1 330-833 Y470A (human, UniProt Q9UBZ9 330-833, Y470A).
T1 sequence: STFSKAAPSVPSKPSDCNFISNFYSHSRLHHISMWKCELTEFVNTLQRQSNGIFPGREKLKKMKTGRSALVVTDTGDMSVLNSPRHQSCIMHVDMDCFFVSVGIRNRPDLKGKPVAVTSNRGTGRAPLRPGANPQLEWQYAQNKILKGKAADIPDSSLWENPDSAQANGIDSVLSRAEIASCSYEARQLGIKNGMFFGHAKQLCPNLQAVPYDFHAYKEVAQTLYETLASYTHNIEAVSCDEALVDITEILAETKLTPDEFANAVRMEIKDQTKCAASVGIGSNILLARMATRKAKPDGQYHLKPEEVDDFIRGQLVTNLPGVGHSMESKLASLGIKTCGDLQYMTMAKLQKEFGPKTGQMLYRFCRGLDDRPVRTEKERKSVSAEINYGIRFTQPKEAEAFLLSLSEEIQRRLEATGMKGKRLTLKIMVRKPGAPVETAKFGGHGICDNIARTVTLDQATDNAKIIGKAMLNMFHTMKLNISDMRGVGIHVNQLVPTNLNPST

In a further series the target is T2, hRev1 330-833 E466K (human, UniProt Q9UBZ9 330-833, E466K).
T2 sequence: T1 sequence with E137K, A141Y

In a further series the target is T3, hRev1 330-833 E466A (human, UniProt Q9UBZ9 330-833, E466A).
T3 sequence: T1 sequence with E137A, A141Y

Another series deals with T4, hRev1 330-833 L358A (human, UniProt Q9UBZ9 330-833, L358A).
T4 sequence: T1 sequence with L29A, A141Y

Where [1] appears, read: parallel G4 (1:2:1 loops) in K+.

Numbering of substitutions follows the chain as printed.

The results in this text go back to paper PMC7913688, “Human Rev1 relies on insert-2 to promote selective binding and accurate replication of stabilized G-quadruplex motifs”.

Usually Kd stands for a measure of binding affinity in units of concentration.

B1: Non-G4 Myc control ss (ssDNA)
DNA: AGCGTGCGTAGCGTGCGTTATGAGATGAT
In the case of B1, the Kd in the series with hRev1 330-833 Y470A was found to be 740 ± 180 nM; with hRev1 330-833 E466K it was 1300 ± 300 nM; in the series with hRev1 330-833 E466A it was 1100 ± 130 nM; with hRev1 330-833 L358A, 660 ± 140 nM.

B2: Myc 14/23 ss G4 (structured_DNA)
DNA: AGGGTGGGTAGGGTGGGTTATGAGATGAT
For B2, the equilibrium dissociation constant (Kd) turned out to be 180 ± 30 nM with hRev1 330-833 Y470A (setting [1]), 43 ± 16 nM in the series with hRev1 330-833 E466K (setting [1]), 280 ± 20 nM in the series with hRev1 330-833 E466A (setting [1]) and 77 ± 8 nM in the series with hRev1 330-833 L358A (setting [1]).
